# Positions count from the first letter of the chain named. Numbers in names are those of the source. Where “and” joins values, the source holds several entries; their conditions need not be identical. Equal entries are not always repeated. Ends that are not written are not given here. * marks the point of attachment. Biotin = O=C1N[C@H]2[C@H](CS[C@H]2CCCCC(=O)*)N1
# T1: Biotin-HaloTag[3-19] (G5R)-4xGly/Ser-VS-HiBiT (N-terminal biotin)
# T1 construct: Synthetic peptide
# T1 peptide: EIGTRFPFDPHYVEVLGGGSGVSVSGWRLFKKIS
# T2: Biotin-HaloTag[3-19] (D9R)-4xGly/Ser-VS-HiBiT (N-terminal biotin)
# T2 construct: Synthetic peptide
# T2 peptide: T1 peptide with R5G, D9R
# T3: Biotin-HaloTag[3-19] (E14K)-4xGly/Ser-VS-HiBIT (N-terminal biotin)
# T3 construct: Synthetic peptide
# T3 peptide: T1 peptide with R5G, E14K
# T4: Biotin-HaloTag[3-19] (L16R)-4xGly/Ser-VS-HiBiT (N-terminal biotin)
# T4 construct: Synthetic peptide
# T4 peptide: T1 peptide with R5G, L16R
# T5: Biotin-HaloTag[3-19] (I2R + G3K)-4xGly/Ser-VS-HiBiT (N-terminal biotin)
# T5 construct: Synthetic peptide; also called HaloTag[3-19](I2R + G3K)-4xGS-VSHiBIT
# T5 peptide: T1 peptide with I2R, G3K, R5G
# T6: Biotin-HaloTag[3-19] (I2R + G5R)-4xGly/Ser-VS-HiBiT (N-terminal biotin)
# T6 construct: Synthetic peptide; also called HaloTag[3-19](I2R + G5R)-4xGS-VSHiBiT
# T6 peptide: T1 peptide with I2R
# T7: Biotin-HaloTag[3-19] (D9R + E14K)-4xGly/Ser-VS-HiBiT (N-terminal biotin)
# T7 construct: Synthetic peptide; also called HaloTag[3-19](D9R + E14K)-4xGS-VSHiBiT
# T7 peptide: T1 peptide with R5G, D9R, E14K
# T8: Biotin-HaloTag[3-19] (D9R + L16R)-4xGly/Ser-VS-HiBiT (N-terminal biotin)
# T8 construct: Synthetic peptide; also called HaloTag[3-19](D9R + L16R)-4xGS-VSHiBiT
# T8 peptide: T1 peptide with R5G, D9R, L16R
# T9: Biotin-HaloTag[3-19] (I2R + D9R)-4xGly/Ser-VS-HiBiT (N-terminal biotin)
# T9 construct: Synthetic peptide; also called HaloTag[3-19](I2R + D9R)-4xGS-VSHiBiT
# T9 peptide: T1 peptide with I2R, R5G, D9R
# T10: Biotin-HaloTag[3-19] (I2R + G17R)-4xGly/Ser-VS-HiBiT (N-terminal biotin)
# T10 construct: Synthetic peptide; also called HaloTag[3-19](I2R + G17R)-4xGS-VSHiBiT
# T10 peptide: T1 peptide with I2R, R5G, G17R
# T11: Biotin-HaloTag[3-19] (G3K + E14K)-4xGly/Ser-VS-HiBiT (N-terminal biotin)
# T11 construct: Synthetic peptide; also called HaloTag[3-19](G3K + E14K)-4xGS-VSHiBiT
# T11 peptide: T1 peptide with G3K, R5G, E14K
# T12: Biotin-HaloTag[3-19] (G3K + L16R)-4xGly/Ser-VS-HiBiT (N-terminal biotin)
# T12 construct: Synthetic peptide; also called HaloTag[3-19](G3K + L16R)-4xGS-VSHiBiT
# T12 peptide: T1 peptide with G3K, R5G, L16R
# T13: Biotin-HaloTag[3-19] (I2R)-4xGly/Ser-VS-HiBiT (N-terminal biotin)
# T13 construct: Synthetic peptide; also called HaloTag[3-19](12R)-4×Gly/Ser-VS-HiBiT; DualTag peptide
# T13 peptide: T1 peptide with I2R, R5G
# T14: Biotin-HaloTag[3-19] (G3K)-4xGly/Ser-VS-HiBIT (N-terminal biotin)
# T14 construct: Synthetic peptide
# T14 peptide: T1 peptide with G3K, R5G
# T15: Biotin-HaloTag[3-19] (I2R)-4xGly/Ser-VS-HiBiT (K8R + K9R) (N-terminal biotin (on Glu1), used for immobilisation on streptavidin probes; not carried by the letters)
# T15 construct: Synthetic peptide
# T15 peptide: T1 peptide with I2R, R5G, K31R, K32R
# T16: Biotin-HaloTag[3-19] (I2R)-VS-HiBiT (N-terminal biotin (on Glu1), used for immobilisation on streptavidin probes; not carried by the letters)
# T16 construct: Synthetic peptide
# T16 peptide: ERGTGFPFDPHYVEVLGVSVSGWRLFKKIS
# T17: Biotin-HaloTag[3-19] (I2R)-4xGly/Ser-HiBiT (N-terminal biotin (on Glu1), used for immobilisation on streptavidin probes; not carried by the letters)
# T17 construct: Synthetic peptide
# T17 peptide: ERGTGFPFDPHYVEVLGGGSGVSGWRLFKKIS
# T18: Biotin-VS-HiBiT-5xGly/Ser-HaloTag[3-19] (I2R) (N-terminal biotin (on Val1), used for immobilisation on streptavidin probes; not carried by the letters)
# T18 construct: Synthetic peptide
# T18 peptide: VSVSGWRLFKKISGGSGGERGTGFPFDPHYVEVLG
# T19: Biotin-VS-HiBiT
# T19 construct: Synthetic peptide
# T19 peptide: Biotin-VSVSGWRLFKKIS
# B1: HaloTag[22-297](M2F)-12xGly/Ser-LgBiT (other)
# chain: MFHYVDVGPRDGTPVLFLHGNPTSSYVWRNIIPHVAPTHRCIAPDLIGMGKSDKPDLGYFFDDHVRFMDAFIEALGLEEVVLVIHDWGSALGFHWAKRNPERVKGIAFMEFIRPIPTWDEWPEFARETFQAFRTTDVGRKLIIDQNVFIEGTLPMGVVRPLTEVEMDHYREPFLNPVDREPLWRFPNELPIAGEPANIVALVEEYMDWLHQSPVPKLLFWGTPGVLIPPAEAARLAKSLPNCKAVDIGPGLNLLQEDNPDLIGSEIARWLSTLEISGGSGGSGGGGSGGMVFTLEDFVGDWEQTAAYNLDQVLEQGGVSSLLQNLAVSVTPIQRIVRSGENALKIDIHVIIPYEGLSADQMAQIEEVFKVVYPVDDHHFKVILPYGTLVIDGVTPNMLNYFGRPYEGIAVFDGKKITVTGTLWNGNKIIDERLITPDGSMLFRVTINS
# B2: HaloTag[22-297](Q145H+P154R)-LgBiT (other)
# chain: MMHYVDVGPRDGTPVLFLHGNPTSSYVWRNIIPHVAPTHRCIAPDLIGMGKSDKPDLGYFFDDHVRFMDAFIEALGLEEVVLVIHDWGSALGFHWAKRNPERVKGIAFMEFIRPIPTWDEWPEFARETFQAFRTTDVGRKLIIDHNVFIEGTLRMGVVRPLTEVEMDHYREPFLNPVDREPLWRFPNELPIAGEPANIVALVEEYMDWLHQSPVPKLLFWGTPGVLIPPAEAARLAKSLPNCKAVDIGPGLNLLQEDNPDLIGSEIARWLSTLEISGGSGGSGGGGSGGMVFTLEDFVGDWEQTAAYNLDQVLEQGGVSSLLQNLAVSVTPIQRIVRSGENALKIDIHVIIPYEGLSADQMAQIEEVFKVVYPVDDHHFKVILPYGTLVIDGVTPNMLNYFGRPYEGIAVFDGKKITVTGTLWNGNKIIDERLITPDGSMLFRVTINSGSGHHHHHH
# B3: HaloTag[22-297](M2F + K140E)-12xGly/Ser-LgBiT-3xGly/Ser-6xHis (other)
# chain: B2 chain with M2F, K140E, H145Q, R154P
# notes: Purified tandem polypeptide reporter variant
# B4: HaloTag[22-297](M2F + D53G + K140E)-12xGly/Ser-LgBiT-3xGly/Ser-6xHis (other)
# chain: B2 chain with M2F, D53G, K140E, H145Q, R154P
# B5: HaloTag[22-297](M2F + D53G + V177E)-12xGly/Ser-LgBiT-3xGly/Ser-6xHis (other)
# chain: B2 chain with M2F, D53G, H145Q, R154P, V177E
# notes: as for B3
# B6: HaloTag[22-297](M2F + F148M + V177E)-12xGly/Ser-LgBiT-3xGly/Ser-6xHis (other)
# chain: B2 chain with M2F, H145Q, F148M, R154P, V177E
# notes: as for B3
# B7: LgBiT-6xHis (other)
# chain: MVFTLEDFVGDWEQTAAYNLDQVLEQGGVSSLLQNLAVSVTPIQRIVRSGENALKIDIHVIIPYEGLSADQMAQIEEVFKVVYPVDDHHFKVILPYGTLVIDGVTPNMLNYFGRPYEGIAVFDGKKITVTGTLWNGNKIIDERLITPDGSMLFRVTINSHHHHHH
# notes: also called LgBiT-6×His; LgBiT alone
# Columns and labels:
# FKBP-SmHT-HiBiT = experiment: cell-based or functional assay
# [1] = biological target: T1, Biotin-HaloTag[3-19] …; experiment: BLI; biotin-peptide on streptavidin probe; PBST, 25 C
# [2] = biological target: T2, Biotin-HaloTag[3-19] …; experiment: as above
# [3] = biological target: T3, Biotin-HaloTag[3-19] …; experiment: as above
# [4] = biological target: T4, Biotin-HaloTag[3-19] …; experiment: as above
# [5] = biological target: T5, Biotin-HaloTag[3-19] (I2R + …); experiment: as above
# [6] = biological target: T6, Biotin-HaloTag[3-19] (I2R + …); experiment: as above
# [7] = biological target: T7, Biotin-HaloTag[3-19] (D9R + …); experiment: as above
# [8] = biological target: T8, Biotin-HaloTag[3-19] (D9R + …); experiment: as above
# [9] = biological target: T9, Biotin-HaloTag[3-19] (I2R + …); experiment: as above
# [10] = biological target: T10, Biotin-HaloTag[3-19] (I2R + …); experiment: as above
# [11] = biological target: T11, Biotin-HaloTag[3-19] (G3K + …); experiment: as above
# [12] = biological target: T12, Biotin-HaloTag[3-19] (G3K + …); experiment: as above
# [13] = biological target: T13, Biotin-HaloTag[3-19] …; experiment: as above
# [14] = biological target: T14, Biotin-HaloTag[3-19] …; experiment: as above
# [15] = biological target: T15, Biotin-HaloTag[3-19] …; experiment: as above
# [16] = biological target: T16, Biotin-HaloTag[3-19] (I2R)-VS-HiBiT; experiment: as above
# [17] = biological target: T17, Biotin-HaloTag[3-19] …; experiment: as above
# [18] = biological target: T18, Biotin-VS-HiBiT-5xGly/Ser-HaloTag[3-19] …; experiment: as above
# [19] = biological target: T20, VS-HiBiT-HaloTag[3-19] (I2R) (not fully specified; N-terminal biotin (on Val1) per the head of Table 1 ('All peptides are biotinylated at the N-terminus'), though Table 2 does not print Biotin for this entry; not carried by the …); experiment: as above
# T20 construct: Synthetic peptide
# Biotin-VS-HiBiT = biological target: T19, Biotin-VS-HiBiT; experiment: as above
binder,measurement,setting,value
B1,luminescence (FIG. 9),FKBP-SmHT-HiBiT,~100 fold
B2,luminescence (FIG. 9),FKBP-SmHT-HiBiT,~100 fold
B3,kon,[1],85300 M⁻¹ s⁻¹
same,Kd,[2],0.126 nM
same,koff,[2],1.09e-05 s⁻¹
same,kon,[2],86600 M⁻¹ s⁻¹
same,kon,[3],108000 M⁻¹ s⁻¹
same,kon,[4],77900 M⁻¹ s⁻¹
same,kon,[5],104000 M⁻¹ s⁻¹
same,kon,[6],95100 M⁻¹ s⁻¹
same,Kd,[7],0.111 nM
same,koff,[7],1.69e-05 s⁻¹
same,kon,[7],152000 M⁻¹ s⁻¹
same,kon,[8],134000 M⁻¹ s⁻¹
same,kon,[9],128000 M⁻¹ s⁻¹
same,kon,[10],93300 M⁻¹ s⁻¹
same,kon,[11],128000 M⁻¹ s⁻¹
same,kon,[12],97100 M⁻¹ s⁻¹
same,Kd,[13],0.684 nM and 0.466 nM
same,koff,[13],4.56e-05 s⁻¹ and 3.26e-05 s⁻¹
same,kon,[13],66700 M⁻¹ s⁻¹ and 70000 M⁻¹ s⁻¹
same,Kd,[14],0.264 nM
same,koff,[14],1.93e-05 s⁻¹
same,kon,[14],73000 M⁻¹ s⁻¹
B4,kon,[15],71400 M⁻¹ s⁻¹
same,Kd,[16],0.713 nM
same,koff,[16],6.05e-05 s⁻¹
same,kon,[16],84800 M⁻¹ s⁻¹
same,Kd,[17],0.323 nM
same,koff,[17],1.98e-05 s⁻¹
same,kon,[17],61300 M⁻¹ s⁻¹
same,Kd,[18],0.782 nM
same,koff,[18],6.94e-05 s⁻¹
same,kon,[18],88700 M⁻¹ s⁻¹
same,Kd,[19],0.613 nM
same,koff,[19],6.77e-05 s⁻¹
same,kon,[19],110000 M⁻¹ s⁻¹
same,Kd,[13],0.576 nM
same,koff,[13],4.82e-05 s⁻¹
same,kon,[13],83800 M⁻¹ s⁻¹
B5,Kd,[13],0.669 nM
same,koff,[13],4.09e-05 s⁻¹
same,kon,[13],61300 M⁻¹ s⁻¹
B6,Kd,[1],0.485 nM
same,koff,[1],2.23e-05 s⁻¹
same,kon,[1],46000 M⁻¹ s⁻¹
same,Kd,Biotin-VS-HiBiT,2.4 nM
same,koff,Biotin-VS-HiBiT,0.000628 s⁻¹
same,kon,Biotin-VS-HiBiT,261000 M⁻¹ s⁻¹
same,Kd,[13],0.509 nM
same,koff,[13],2.75e-05 s⁻¹
same,kon,[13],54000 M⁻¹ s⁻¹
same,Kd,[14],0.102 nM
same,koff,[14],5.03e-06 s⁻¹
same,kon,[14],49500 M⁻¹ s⁻¹
B7,Kd,[5],0.323 nM
same,koff,[5],2.4e-05 s⁻¹
same,kon,[5],74500 M⁻¹ s⁻¹
same,Kd,[6],0.11 nM
same,koff,[6],5.86e-06 s⁻¹
same,kon,[6],53200 M⁻¹ s⁻¹
same,kon,[7],83000 M⁻¹ s⁻¹
same,kon,[8],64800 M⁻¹ s⁻¹
same,Kd,Biotin-VS-HiBiT,5.06 nM
same,koff,Biotin-VS-HiBiT,0.000931 s⁻¹
same,kon,Biotin-VS-HiBiT,184000 M⁻¹ s⁻¹

# — US20240368565A1 (PROMEGA, published 2024)
